Source: PMC6497721, “DNA methylation repels targeting of Arabidopsis REF6”

T1: GST-REF6C (ZnF1-4) (Arabidopsis thaliana, UniProt Q9STM3 1239-1360)
T1 sequence: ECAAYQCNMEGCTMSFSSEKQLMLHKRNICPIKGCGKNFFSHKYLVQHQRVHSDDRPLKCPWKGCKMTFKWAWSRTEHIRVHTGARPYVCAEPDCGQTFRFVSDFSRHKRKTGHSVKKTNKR

T2: REF6 ZnF1-4 (Arabidopsis thaliana, UniProt Q9STM3 1239-1360)
T2 sequence: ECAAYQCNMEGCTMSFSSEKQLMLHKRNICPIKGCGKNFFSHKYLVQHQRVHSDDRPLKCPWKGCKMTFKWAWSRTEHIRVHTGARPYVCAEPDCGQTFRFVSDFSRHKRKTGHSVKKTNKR


What was measured:
GST-REF6C (ZnF1-4) = target: T1, GST-REF6C (ZnF1-4); assay: EMSA; 1 uM ZnSO4; ITC: 20 mM Tris-HCl pH 7.5, 150 mM NaCl, 20 uM ZnCl2, 25 C; EMSA: 25 mM Tris-HCl pH 8.0, 100 mM NaCl, 2.5 mM MgCl2, 0.1% CA-630, 10% glycerol, 1 uM ZnSO4, 1 mM; settings: protein: recombinant; tags: N-terminal GST (pGEX-6P-1); label: 5'-32P; blunt
REF6 ZnF1-4 = target: T2, REF6 ZnF1-4; assay: ITC; 20 uM ZnCl2; ITC: 20 mM Tris-HCl pH 7.5, 150 mM NaCl, 20 uM ZnCl2, 25 C; EMSA: 25 mM Tris-HCl pH 8.0, 100 mM NaCl, 2.5 mM MgCl2, 0.1% CA-630, 10% glycerol, 1 uM ZnSO4, 1 mM; settings: protein: recombinant; tags: GST removed by PreScission; blunt

Row | Binder | binding result (GST-REF6C (ZnF1-4)) | Kd (REF6 ZnF1-4)
1 | NAC004 50-bp probe (dsDNA) DNA 1: GGGAGAATCTCAAACTTTCTCTGTTTTGTCTTTAGAAACTTTGAAATATC DNA 2: GATATTTCAAAGTTTCTAAAGACAAAACAGAGAAAGTTTGAGATTCTCCC | binds | –
2 | NAC004P 12-mer (dsDNA) DNA 1: TTCTCTGTTTTG DNA 2: CAAAACAGAGAA | – | 0.0735 ± 0.007 µM
3 | NAC004P_5mC3 (dsDNA, 5mC at top strand position 5) DNA 1: TTCTCTGTTTTG DNA 2: CAAAACAGAGAA | – | 0.11 ± 0.0038 µM
4 | NAC004P_5mC1 (dsDNA, 5mC at top strand position 3) DNA 1: TTCTCTGTTTTG DNA 2: CAAAACAGAGAA | – | 0.0657 ± 0.0049 µM
